Results reported in the supplement of paper PMC11246515.
± gives the standard deviation of the averaged measurements.

Assay: total protein half-life in vivo (active degradation + dilution); higher = more stable protein
[1] = E. coli NCM3722 delta-clpP, growth: N-lim chemostat, doubling time 6 h
[2] = E. coli NCM3722 delta-hslV, growth: N-lim chemostat, doubling time 6 h
[3] = E. coli NCM3722 delta-lon, growth: N-lim chemostat, doubling time 6 h
[4] = E. coli NCM3722 delta-smpB, growth: N-lim chemostat, doubling time 6 h
[5] = wild type E. coli NCM3722, growth: C-lim chemostat, doubling time 3 h
[6] = wild type E. coli NCM3722, growth: C-lim chemostat, doubling time 6 h
[7] = wild type E. coli NCM3722, growth: C-lim chemostat, doubling time 12 h
[8] = wild type E. coli NCM3722, growth: N-lim chemostat, doubling time 6 h
[9] = wild type E. coli NCM3722, growth: N-lim chemostat, doubling time 12 h
[10] = wild type E. coli NCM3722, growth: P-lim chemostat, doubling time 6 h
[11] = wild type E. coli NCM3722, growth: P-lim chemostat, doubling time 12 h
[12] = E. coli NCM3722 delta-clpP delta-lon delta-hslV, growth: N-lim chemostat, doubling time 6 h

Row | Sequence | total protein half-life in vivo [1] | total protein half-life in vivo [2] | total protein half-life in vivo [3] | total protein half-life in vivo [4] | total protein half-life in vivo [5] | total protein half-life in vivo [6] | total protein half-life in vivo [7] | total protein half-life in vivo [8] | total protein half-life in vivo [9] | total protein half-life in vivo [10] | total protein half-life in vivo [11] | total protein half-life in vivo [12]
1 | MGKLGENVPLLIDKAVDFMASSQAFREYLKKLPPRNAIPSGIPDESVPLYLQRLEYYRRLYRPKQVEGQ [Q2M7R5] | 4.46 ± 1.4 h | 3.56 h | 3.4 h | 3.22 ± 0.16 h | 1.99 ± 0.42 h | 4.09 ± 0.43 h | 4.69 h | 2.94 ± 0.43 h | 4.57 ± 1.1 h | 3.73 ± 0.57 h | 8.27 ± 0.33 h | 
2 | MNTARLNQGTPLLLNAVSKHYAENIVLNQLDLHIPAGQFVAVVGRSGGGKSTLLRLLAGLETPTAGDVLAGTTPLAEIQEDTRMMFQDARLLPWKSVIDNVGLGLKGQWRDAARRALAAVGLENRAGEWPAALSGGQKQRVALARALIHRPGLLLLDEPLGALDALTRLEMQDLIVSLWQEHGFTVLLVTHDVSEAVAMADRVLLIEEGKIGLDLTVDIPRPRRLGSVRLAELEAEVLQRVMQRGESETRLRKQG [P0AAI1] | 1.1 h |  |  |  |  |  |  |  |  |  |  | 5.9 ± 0.12 h
3 | MRADKSLSPFEIRVYRHYRIVHGTRVALAFLLTFLIIRLFTIPESTWPLVTMVVIMGPISFWGNVVPRAFERIGGTVLGSILGLIALQLELISLPLMLVWCAAAMFLCGWLALGKKPYQGLLIGVTLAIVVGSPTGEIDTALWRSGDVILGSLLAMLFTGIWPQRAFIHWRIQLAKSLTEYNRVYQSAFSPNLLERPRLESHLQKLLTDAVKMRGLIAPASKETRIPKSIYEGIQTINRNLVCMLELQINAYWATRPSHFVLLNAQKLRDTQHMMQQILLSLVHALYEGNPQPVFANTEKLNDAVEELRQLLNNHHDLKVVETPIYGYVWLNMETAHQLELLSNLICRALRK |  | 5.415 ± 0.036 h | 6.43 ± 0.51 h | 5.53 ± 1.8 h | 3.27 ± 0.35 h | 5.4 ± 0.19 h | 11.5 ± 0.28 h | 5.61 ± 0.075 h | 7.75 ± 6 h | 4.76 ± 2.1 h | 10.6 ± 3.9 h | 6.005 ± 0.0077 h
4 | MQTQIKVRGYHLDVYQHVNNARYLEFLEEARWDGLENSDSFQWMTAHNIAFVVVNININYRRPAVLSDLLTITSQLQQLNGKSGILSQVITLEPEGQVVADALITFVCIDLKTQKALALEGELREKLEQMVK | 3.29 ± 0.61 h | 3.46 ± 0.25 h |  | 3.35 ± 0.049 h | 3.22 ± 0.17 h | 5.29 ± 0.48 h | 7.87 ± 0.63 h | 3.29 ± 0.11 h | 4.77 ± 0.72 h | 5.365 ± 0.043 h | 9.67 ± 0.54 h | 4.69 ± 0.88 h
5 | MSSKLVLVLNCGSSSLKFAIIDAVNGEEYLSGLAECFHLPEARIKWKMDGNKQEAALGAGAAHSEALNFIVNTILAQKPELSAQLTAIGHRIVHGGEKYTSSVVIDESVIQGIKDAASFAPLHNPAHLIGIEEALKSFPQLKDKNVAVFDTAFHQTMPEESYLYALPYNLYKEHGIRRYGAHGTSHFYVTQEAAKMLNKPVEELNIITCHLGNGGSVSAIRNGKCVDTSMGLTPLEGLVMGTRSGDIDPAIIFHLHDTLGMSVDAINKLLTKESGLLGLTEVTSDCRYVEDNYATKEDAKRAMDVYCHRLAKYIGAYTALMDGRLDAVVFTGGIGENAAMVRELSLGKLGVLGFEVDHERNLAARFGKSGFINKEGTRPAVVIPTNEELVIAQDASRLTA [P0A6A3] | 6.03 ± 2.6 h | 4.41 ± 0.054 h | 4.89 ± 0.78 h | 4.28 ± 0.21 h | 3.25 ± 0.17 h | 6.35 ± 0.1 h | 12.1 ± 0.56 h | 4.58 ± 0.21 h | 8.13 ± 0.2 h | 5.88 ± 0.24 h | 13.1 ± 1.2 h | 4.23 ± 0.13 h
6 | MSQPRPLLSPPETEEQLLAQAQQLSGYTLGELAALVGLVTPENLKRDKGWIGVLLEIWLGASAGSKPEQDFAALGVELKTIPVDSLGRPLETTFVCVAPLTGNSGVTWETSHVRHKLKRVLWIPVEGERSIPLAQRRVGSPLLWSPNEEEDRQLREDWEELMDMIVLGQVERITARHGEYLQIRPKAANAKALTEAIGARGERILTLPRGFYLKKNFTSALLARHFLIQ | 4.23 ± 0.2 h | 3.6 ± 0.27 h | 5.21 ± 0.38 h | 3.89 ± 0.26 h | 2.83 ± 0.25 h | 5.16 ± 0.45 h | 8.72 ± 0.48 h | 4.92 h |  | 5.79 h | 8.63 ± 0.7 h | 5.31 ± 1.2 h
7 | MFGKGGLGNLMKQAQQMQEKMQKMQEEIAQLEVTGESGAGLVKVTINGAHNCRRVEIDPSLLEDDKEMLEDLVAAAFNDAARRIEETQKEKMASVSSGMQLPPGFKMPF [P0A8B5] | 4.38 ± 0.044 h | 3.59 ± 0.49 h | 4.57 ± 0.16 h | 3.28 ± 0.64 h | 2.68 ± 0.07 h | 4.44 ± 0.19 h | 7.56 ± 0.1 h | 3.02 ± 0.071 h | 5.05 ± 0.83 h | 4.24 ± 0.68 h | 9.46 ± 0.42 h | 6.29 ± 0.61 h
8 | MSEQETRGANEAIDFNDELRNRREKLAALRQQGVAFPNDFRRDHTSDQLHEEFDAKDNQELESLNIEVSVAGRMMTRRIMGKASFVTLQDVGGRIQLYVARDSLPEGVYNDQFKKWDLGDIIGARGTLFKTQTGELSIHCTELRLLTKALRPLPDKFHGLQDQEVRYRQRYLDLIANDKSRQTFVVRSKILAAIRQFMVARGFMEVETPMMQVIPGGASARPFITHHNALDLDMYLRIAPELYLKRLVVGGFERVFEINRNFRNEGISVRHNPEFTMMELYMAYADYHDLIELTESLFRTLAQEVLGTTKVTYGEHVFDFGKPFEKLTMREAIKKYRPETDMADLDNFDAAKALAESIGITVEKSWGLGRIVTEIFDEVAEAHLIQPTFITEYPAEVSPLARRNDVNPEITDRFEFFIGGREIGNGFSELNDAEDQAERFQEQVNAKAAGDDEAMFYDEDYVTALEYGLPPTAGLGIGIDRMIMLFTNSHTIRDVILFPAMRPQK [P0A8N5] | 5.16 ± 0.085 h | 4.88 ± 0.071 h | 5.06 ± 0.16 h | 4.87 ± 0.087 h | 3.05 ± 0.11 h | 5.71 ± 0.27 h | 9.948 ± 0.028 h | 4.74 ± 0.36 h | 7.77 ± 0.82 h | 5.55 ± 0.27 h | 11.2 ± 0.22 h | 5.8 ± 0.78 h
